Assay results as given in the Immune Epitope Database (IEDB).

Experiments:
Assay in all cases: IEDB peptide-MHC binding, purified MHC/competitive/radioactivity; filed as Kd, often an IC50 or EC50 that approximates it; ≥ and ≤ were set here for values at or beyond the usual limits of such assays
Conditions in all cases: source organism: human papillomavirus 18
HLA-A*03:01 = target: HLA-A*03:01
HLA-A*02:01 = target: HLA-A*02:01
HLA-A*11:02 = target: HLA-A*11:02
HLA-A*01:01 = target: HLA-A*01:01
HLA-A*24:02 = target: HLA-A*24:02

| Sequence | Kd (HLA-A*03:01) | Kd (HLA-A*02:01) | Kd (HLA-A*11:02) | further results |
| --- | --- | --- | --- | --- |
| IEITCVYCK | 200 nM |  |  |  |
| LFLNTLSFV |  | 820 nM |  |  |
| TEVFEFAFK |  |  | 257 nM |  |
| FAFKDLFVV |  | 3 nM |  |  |
| HLNEKRRFH | 667 nM |  |  |  |
| NTGLYNLLI |  |  |  | Kd (HLA-A*01:01): 506 nM |
| ELTEVFEFA |  | 500 nM |  |  |
| LLIRCLRCQ | 508 nM |  |  |  |
| SVYGDTLEK | 32 nM |  | 2 nM |  |
| VYGDTLEKL |  |  |  | Kd (HLA-A*24:02): 222 nM |
| GQCHSCCNR |  |  | 64 nM |  |
| VYCKTVLEL |  |  | 563 nM | Kd (HLA-A*24:02): 24 nM |
| FQQLFLNTL |  | 417 nM |  |  |
| RQERLQRRR | 484 nM |  |  |  |
| SLQDIEITC |  | 532 nM |  |  |
| LIRCLRCQK | 526 nM |  | 375 nM |  |

| Sequence | Kd (HLA-A*03:01) | Kd (HLA-A*02:01) | Kd (HLA-A*11:02) | further results |
| --- | --- | --- | --- | --- |
| RHTMLCMCC |  |  |  | Kd (HLA-A*24:02): 733 nM |
| FLNTLSFVC |  | 943 nM |  |  |
| DIEITCVYC | 462 nM | 649 nM |  | Kd (HLA-A*01:01): 506 nM |
| CIDFYSRIR | 273 nM |  | 27 nM | Kd (HLA-A*01:01): 810 nM |
| HTMLCMCCK | 73 nM |  | 5 nM |  |
| FKDLFVVYR | 330 nM | 500 nM | 500 nM | Kd (HLA-A*01:01): 736 nM |
| LFVVYRDSI | 441 nM |  |  |  |
| KCIDFYSRI |  | 417 nM |  |  |
| RCQKPLNPA |  |  | 563 nM |  |
| ATLQDIVLH |  |  | 12 nM |  |
| KLPDLCTEL |  | 602 nM |  |  |
| LQDIEITCV | 625 nM |  |  | Kd (HLA-A*01:01): 988 nM |
| VVYRDSIPH |  |  | 5 nM |  |
| GLYNLLIRC | 313 nM | 135 nM | 188 nM |  |
| DLFVVYRDS | 1000 nM |  |  |  |
| SIPHAACHK |  |  | 15 nM |  |
